In publication PMC3331996 (Developmental Cell, 2012):

Target: the molecule itself
Assay: combined sedimentation/Stokes analysis

| Protein | stoichiometry N |
| --- | --- |
| Sec7ΔC+HDS1, Sec7 residues 203-1220, purified (domain or fragment, yeast, UniProt P11075 203-1220, looked up) PRSTHTRNISLSSNGSNTNSTIILVKTTLETILNDKDIKKNSNAQKAIERTLQKFKEFDPQTTNNPHYVDSILVFEALRASCRTKSSKVQSLALDCLSKLFSFRSLDETLLVNPPDSLASNDQRQDAADGITPPPKQKIIDAAIDTISDCFQGEGTDDRVELQIVRALSSCILEEDSSSLCHGASLLKAIRTIYNVFVFSLNPSNQGIAQATLTQIISSVYDKIDLKQSTSSAVSLSTKNHQQQSAIELSEASENAETPAPLTLENMDKLNDDEERLMDAQQPDSIAITNQDLAVKDAFLVFRVMAKICAKPLETELDMRSHAVRSKLLSLHIIYSIIKDHIDVFLSHNIFLPGKERVCFIDSIRQYLRLVLSRNAASPLAPVFEVTLEIMWLLIANLRADFVKEIPVFLTEIYFPISELTTSTSQQKRYFLSVIQRICNDPRTLVEFYLNYDCNPGMPNVMEITVDYLTRLALTRVEITQTQRSYYDEQISKSLSTYNFSQLPLLTSSNLSSSPDVGQVNLLFPLDFALKMVSLNCIVSVLRSLSSWAHKALNPNTHTANKVLLNTTSSARQESRSSLSNDVRSSIMTSNDDFKPTYEDEESRSLSSQNIDADDPTQFENLKLRKTALSECIAIFNNKPKKAIPVLIKKGFLKDDSPISIAKWLLETEGLDMAAVGDYLGEGDDKNIAIMHAFVDEFDFTGMSIVDALRSFLQSFRLPGEGQKIDRFMLKFAERFVDQNPGVFSKADTAYVLSYSLIMLNTDLHSSQIKNKMSLQEFLENNEGIDNGRDLPRDFLEGLFNEIANNEIKLISEQHQAMLSGDTNLVQQQQSAFNFFNSRDLTREAYNQVSKEISSKTELVFKNLNKNKGGPDVYYAASHVEHVKSIFETLWMSFLAALTPPFKDYDDIDTTNKCLEGLKISIKIASTFRINDARTSFVGALVQFCNLQNLEEIKVKNVNAMVILLEVALSEGNYLEGSWKDILLVVSQMERLQLISKGIDRDTVPDVAQARVANPRVS | 2 |
| Sec7f, Sec7(203-2009) purified fragment (domain or fragment, yeast, UniProt P11075 203-2009, looked up) PRSTHTRNISLSSNGSNTNSTIILVKTTLETILNDKDIKKNSNAQKAIERTLQKFKEFDPQTTNNPHYVDSILVFEALRASCRTKSSKVQSLALDCLSKLFSFRSLDETLLVNPPDSLASNDQRQDAADGITPPPKQKIIDAAIDTISDCFQGEGTDDRVELQIVRALSSCILEEDSSSLCHGASLLKAIRTIYNVFVFSLNPSNQGIAQATLTQIISSVYDKIDLKQSTSSAVSLSTKNHQQQSAIELSEASENAETPAPLTLENMDKLNDDEERLMDAQQPDSIAITNQDLAVKDAFLVFRVMAKICAKPLETELDMRSHAVRSKLLSLHIIYSIIKDHIDVFLSHNIFLPGKERVCFIDSIRQYLRLVLSRNAASPLAPVFEVTLEIMWLLIANLRADFVKEIPVFLTEIYFPISELTTSTSQQKRYFLSVIQRICNDPRTLVEFYLNYDCNPGMPNVMEITVDYLTRLALTRVEITQTQRSYYDEQISKSLSTYNFSQLPLLTSSNLSSSPDVGQVNLLFPLDFALKMVSLNCIVSVLRSLSSWAHKALNPNTHTANKVLLNTTSSARQESRSSLSNDVRSSIMTSNDDFKPTYEDEESRSLSSQNIDADDPTQFENLKLRKTALSECIAIFNNKPKKAIPVLIKKGFLKDDSPISIAKWLLETEGLDMAAVGDYLGEGDDKNIAIMHAFVDEFDFTGMSIVDALRSFLQSFRLPGEGQKIDRFMLKFAERFVDQNPGVFSKADTAYVLSYSLIMLNTDLHSSQIKNKMSLQEFLENNEGIDNGRDLPRDFLEGLFNEIANNEIKLISEQHQAMLSGDTNLVQQQQSAFNFFNSRDLTREAYNQVSKEISSKTELVFKNLNKNKGGPDVYYAASHVEHVKSIFETLWMSFLAALTPPFKDYDDIDTTNKCLEGLKISIKIASTFRINDARTSFVGALVQFCNLQNLEEIKVKNVNAMVILLEVALSEGNYLEGSWKDILLVVSQMERLQLISKGIDRDTVPDVAQARVANPRVSYESSRSNNTSFFDVWGKKATPTELAQEKHHNQTLSPEISKFISSSELVVLMDNIFTKSSELSGNAIVDFIKALTAVSLEEIESSENASTPRMFSLQKMVDVCYYNMDRIKLEWTPLWAVMGKAFNKIATNSNLAVVFFAIDSLRQLSMRFLDIEELSGFEFQHDFLKPFEYTVQNSGNTEVQEMIIECFRNFILTKSESIKSGWKPILESLQYTARSSTESIVLKTQLLVSNDIVTNHFENVFSQEDAFSELVGVFREITKNKRFQKLSLHALESLRKMTQNVADICFYNENKTEEERKHNDALLRGKDIFQDVWFPMLFCFNDTIMTAEDLEVRSRALNYMFDALVAYGGKFNDDFWEKICKKLLFPIFGVLSKHWEVNQFNSHDDLSVWLSTTLIQALRNLIALFTHYFESLNRMLDGFLGLLVSCICQENDTIARIGRSCLQQLILQNVSKFNEYHWNQIGDVFDKLFDLTTANELFDYDPLQQGRKSSVSHHQTTNDTSQHSDDDSNDRRENDSNISETVERAHQEESSEDVGGDMVETLNGQTKLNNGNSVPTVKDELNPKPASLSIPKKTKHMKRNESNEDIRRRINIKNSIVVKCVLQLLMIELLNELFENEDFAHCIPYKEAIRITRLLEKSYEFSRDFNEDYGLRTRLVEARVVDKIPNLLKQETSAAAVLLDIMFQLYLNDDEKKADLITRLITICIQVVEGYVSLDDRTMERSINAWRSVIVEILQGYYEFDDEDFRLYCPAMYALVIQILDKSVPTELRHAIKQFLSRVGELYLSTD | 2 |
